Laboratory results taken from patent US20160009798A1.

Legend:
[1] = biological target: human oncostatin M (OSM), in-house recombinant, mammalian-cell derived (human) (UniProt P13725); assay: SPR competition, human OSM captured on immobilized M71 (competitor), sample injected at 300 nM
[2] = biological target: human oncostatin M (OSM), in-house recombinant, mammalian-cell derived (human) (UniProt P13725); assay: SPR competition, human OSM captured on immobilized M69 (competitor), sample injected at 300 nM
[3] = biological target: human oncostatin M (OSM), in-house recombinant, mammalian-cell derived (human) (UniProt P13725); assay: SPR competition, human OSM captured on immobilized M2 (competitor), sample injected at 300 nM, second chip
[4] = biological target: human oncostatin M (OSM), in-house recombinant, mammalian-cell derived (human) (UniProt P13725); assay: cell-based or functional assay
[5] = biological target: human oncostatin M (OSM), in-house recombinant, mammalian-cell derived (human) (UniProt P13725); assay: SPR competition, human OSM captured on immobilized M2 (competitor), sample injected at 300 nM
[6] = biological target: human oncostatin M (OSM), in-house recombinant, mammalian-cell derived (human) (UniProt P13725); assay: SPR competition, human OSM captured on immobilized M64 (competitor), sample injected at 300 nM, second chip
[7] = biological target: human oncostatin M (OSM), in-house recombinant, mammalian-cell derived (human) (UniProt P13725); assay: SPR competition, human OSM captured on immobilized M55 (competitor), sample injected at 300 nM, second chip
[8] = biological target: human oncostatin M (OSM), in-house recombinant, mammalian-cell derived (human) (UniProt P13725); assay: SPR (Biacore 3000), mAb captured by anti-Fc, OSM as analyte
[9] = biological target: Cynomolgus monkey (Macaca fascicularis) oncostatin M, in-house recombinant (Cynomolgus monkey (Macaca fascicularis)); assay: as above
[10] = biological target: human oncostatin M (OSM), in-house recombinant, mammalian-cell derived (human) (UniProt P13725); assay: SPR competition, human OSM captured on immobilized M54 (competitor), sample injected at 300 nM

Sequence of Cynomolgus monkey (Macaca fascicularis) oncostatin M, in-house recombinant (Cynomolgus monkey (Macaca fascicularis)) (P13725 other isoform, or with tags, fused parts or gaps limits assumed): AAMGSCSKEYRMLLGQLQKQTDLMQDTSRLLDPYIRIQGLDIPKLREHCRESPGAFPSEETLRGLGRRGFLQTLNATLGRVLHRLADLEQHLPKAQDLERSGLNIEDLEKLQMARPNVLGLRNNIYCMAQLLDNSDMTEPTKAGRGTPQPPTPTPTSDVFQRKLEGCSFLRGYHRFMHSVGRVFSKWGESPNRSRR
Sequence of human oncostatin M (OSM), in-house recombinant, mammalian-cell derived (human) (P13725 26-221 limits assumed): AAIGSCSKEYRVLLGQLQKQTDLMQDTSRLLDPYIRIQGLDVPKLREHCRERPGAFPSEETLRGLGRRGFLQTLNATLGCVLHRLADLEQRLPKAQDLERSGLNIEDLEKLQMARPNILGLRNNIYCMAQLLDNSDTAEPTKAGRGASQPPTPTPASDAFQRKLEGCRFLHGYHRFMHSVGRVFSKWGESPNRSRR

MAB295 (R&D Systems) (antibody)
Binding Level (RU) [1]: 1990 RU
Binding Level (RU) [2]: 2390 RU
Binding Level (RU) [3]: -80 RU
EC50, pSTAT3 inhibition in A375 cells with 5 ng/ml hOSM [4]: 72.1 ng/ml
Binding Level (RU) [5]: -83 RU
Binding Level (RU) [6]: 1950 RU
Binding Level (RU) [7]: 2950 RU
Kd [8]: 1.85 nM
koff [8]: 0.00217 s⁻¹
kon [8]: 1.18e+06 M⁻¹ s⁻¹
KD ratio Cyno/Human [9]: 10.7
Kd [9]: 19.8 nM
koff [9]: 0.0141 s⁻¹
kon [9]: 710000 M⁻¹ s⁻¹
Binding Level (RU) [10]: 2900 RU
